Values quoted from earlier work, collected in article PMC4174909.

Target: His37 (UniProt position 37, IIGILHLILWI)

For “Matrix protein 2 (M2 proton channel) (Influenza A virus (strain not stated for the quoted pKa values; the experiments of this article use A/Udorn/72))”, the pKa is listed as 8.2 and about 6 and about 4 to 5.
